Reference: patent US20240034816A1 (Sanofi, published 2024)

Legend:
human CD64 (human FcγRI) = molecular target: T1, human CD64 (human FcγRI) (human, UniProt P12314 16-292, limits assumed); assay: SPR, fit 1:1 Binding, Exp No 3
T1 construct: also called HuFcyRI

cynomolgus CD16 = molecular target: T2, cynomolgus CD16 (cynomolgus, UniProt Q8SPW2 17-208); assay: SPR, fit Two State Reaction, Exp No 3
T2 construct: also called CyFcyRIII

[1] = molecular target: T3, human CD16a (human FcγRIIIA), V isoform (human, UniProt P08637 17-208); assay: SPR, fit Two State Reaction, Exp No 3
T3 construct: also called HuFcyRIIIaV; CD16a (V176)

cynomolgus CD32a [2] = molecular target: T4, cynomolgus CD32a (cynomolgus); assay: SPR, fit Steady State Affinity, Exp No 1
T4 construct: also called CyFcyRIIa

cynomolgus CD32b [3] = molecular target: T5, cynomolgus CD32b (cynomolgus); assay: SPR, fit Steady State Affinity, Exp No 1
T5 construct: also called CyFcyRIIb

[4] = molecular target: T6, human CD32a (human FcγRIIA) (human, UniProt P12318 34-217, limits assumed); assay: SPR, fit Steady State Affinity, Exp No 1
T6 construct: also called HuFcyRIIa
T6 sequence (looked up): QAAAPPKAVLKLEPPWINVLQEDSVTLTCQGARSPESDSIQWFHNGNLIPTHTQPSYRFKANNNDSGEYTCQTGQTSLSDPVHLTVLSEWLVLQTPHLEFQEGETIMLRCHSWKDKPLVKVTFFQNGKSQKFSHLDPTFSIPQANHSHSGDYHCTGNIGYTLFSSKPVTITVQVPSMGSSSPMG

[5] = molecular target: T7, human CD32b (human FcγRIIB) (human, UniProt P31994 43-217, limits assumed); assay: SPR, fit Steady State Affinity, Exp No 1
T7 construct: also called HuFcyRIIb
T7 sequence (looked up): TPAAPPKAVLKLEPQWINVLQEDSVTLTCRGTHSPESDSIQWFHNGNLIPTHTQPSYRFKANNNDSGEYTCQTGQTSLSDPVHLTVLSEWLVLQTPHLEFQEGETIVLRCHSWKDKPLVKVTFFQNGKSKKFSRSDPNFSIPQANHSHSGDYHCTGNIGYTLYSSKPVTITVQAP

[6] = molecular target: T8, human CD16b (human FcgRIIIB) (human, UniProt O75015 17-200, limits assumed); assay: SPR, fit Steady State Affinity, Exp No 1
T8 construct: also called HuFcyRIIIb

cynomolgus CD32a [7] = molecular target: T4, cynomolgus CD32a; assay: SPR, fit Steady State Affinity, Exp No 2
cynomolgus CD32b [8] = molecular target: T5, cynomolgus CD32b; assay: SPR, fit Steady State Affinity, Exp No 2
[9] = molecular target: T6, human CD32a (human FcγRIIA); assay: SPR, fit Steady State Affinity, Exp No 2
[10] = molecular target: T7, human CD32b (human FcγRIIB); assay: SPR, fit Steady State Affinity, Exp No 2
[11] = molecular target: T8, human CD16b (human FcgRIIIB); assay: SPR, fit Steady State Affinity, Exp No 2
cynomolgus CD32a [12] = molecular target: T4, cynomolgus CD32a; assay: SPR, fit Steady State Affinity, Exp No 3
[13] = molecular target: T6, human CD32a (human FcγRIIA); assay: SPR, fit Steady State Affinity, Exp No 3
cynomolgus CD32a [14] = molecular target: T4, cynomolgus CD32a; assay: SPR, fit Steady State Affinity, mean of 3 experiments
cynomolgus CD32b [15] = molecular target: T5, cynomolgus CD32b; assay: as above
[16] = molecular target: T6, human CD32a (human FcγRIIA); assay: as above
[17] = molecular target: T7, human CD32b (human FcγRIIB); assay: as above
[18] = molecular target: T8, human CD16b (human FcgRIIIB); assay: as above
[19] = molecular target: T9, human BCMA on RPMI 8226 multiple myeloma cells (human, UniProt Q02223 1-184); assay: flow cytometry titration on RPMI 8226 cells, detection with goat anti-human IgG Fcγ-PE, 4-parameter fit; mean of 5 independent titrations
T9 construct: whole, on cells; also called BCMA on RPMI cells
T9 sequence (looked up): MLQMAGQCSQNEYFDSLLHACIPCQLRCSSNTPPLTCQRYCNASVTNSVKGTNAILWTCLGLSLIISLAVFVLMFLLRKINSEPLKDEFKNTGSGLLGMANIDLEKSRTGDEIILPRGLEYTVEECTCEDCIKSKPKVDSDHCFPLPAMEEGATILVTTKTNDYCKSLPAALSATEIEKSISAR
Protocol: After staining, cells were resuspended in BD Cellfix and analyzed by flow cytometry. Parameters were recorded and analysed with FlowJo software. Staining EC50 values were calculated with GraphPad prism using 4 parameter logistics non-linear regression model.

T8 sequence (O75015 17-200 limits assumed): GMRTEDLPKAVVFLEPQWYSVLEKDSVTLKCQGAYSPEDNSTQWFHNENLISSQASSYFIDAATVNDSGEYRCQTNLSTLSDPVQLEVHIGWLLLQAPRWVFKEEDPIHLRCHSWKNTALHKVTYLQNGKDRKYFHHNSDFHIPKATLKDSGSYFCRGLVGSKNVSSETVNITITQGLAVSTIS
T3 sequence (P08637 17-208 F176V limits assumed): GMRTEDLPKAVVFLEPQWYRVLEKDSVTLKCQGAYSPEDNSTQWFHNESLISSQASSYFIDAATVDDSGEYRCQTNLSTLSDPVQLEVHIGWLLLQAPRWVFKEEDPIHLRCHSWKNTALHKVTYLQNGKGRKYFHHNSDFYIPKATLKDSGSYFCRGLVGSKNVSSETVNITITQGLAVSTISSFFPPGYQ
T1 sequence (P12314 16-292 limits assumed): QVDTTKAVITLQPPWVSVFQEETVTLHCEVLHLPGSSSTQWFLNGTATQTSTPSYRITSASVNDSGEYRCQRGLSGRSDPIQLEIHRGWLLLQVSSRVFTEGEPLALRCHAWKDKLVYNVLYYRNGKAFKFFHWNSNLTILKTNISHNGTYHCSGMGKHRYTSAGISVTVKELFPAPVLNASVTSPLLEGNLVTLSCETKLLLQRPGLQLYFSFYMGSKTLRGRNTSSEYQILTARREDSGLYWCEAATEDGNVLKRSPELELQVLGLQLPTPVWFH
T2 sequence (Q8SPW2 17-208): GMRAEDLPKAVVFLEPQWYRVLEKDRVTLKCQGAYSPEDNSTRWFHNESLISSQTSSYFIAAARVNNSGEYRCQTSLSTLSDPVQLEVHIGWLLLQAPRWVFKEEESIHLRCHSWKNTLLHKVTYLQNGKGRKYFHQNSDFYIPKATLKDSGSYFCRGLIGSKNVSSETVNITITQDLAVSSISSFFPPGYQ

B1: NKp46-BCMA_Fc-ADE-DSB NKCE (bispecific antibody, human IgG1, kappa)
light: QTVVTQEPSLTVSPGGTVTLTCASSTGTVTPSNYANWVQQKPGQAFRGLIGDNNSRPPGTPARFSASLLGGKAALTLSGVQPEDEAEYYCALWFGNQWVFGGGTKLTVLGGGGSGGGGSDIQMTQSPSSLSASVGDRVTITCRASQDISNYLNWYQQKPGKAPKLLIYYTSRLHSGVPSRFSGSGSGTDFTFTISSLQPEDIATYFCQQGNTRPWTFGGGTKVEIKGGGGSGGGGSRTVAAPSVFIFPPSDEQLKSGTASVVCLLNNFYPREAKVQWKVDNALQSGNSQESVTEQDSKDSTYSLSSTLTLSKADYEKHKVYACEVTHQGLSSPVTKSFNRGEC
heavy: QVQLVQSGAEVKKPGSSVKVSCKASGYTFSDYVINWVRQAPGQGLEWMGEIYPGSGTNYYNEKFKAKATITADKSTSTAYMELSSLRSEDTAVYYCARRGRYGLYAMDYWGQGTTVTVSSQVQLVESGGGVVQPGRSLRLSCAASGFTFSNFGMHWVRQAPGRGLEWVAVIWSDETNRYYADSVKGRFTVSRDNVKSTVYLQMNSLISEDTAVYYCARDQQYCSSDSCFTWFDPWGQGTLVTVSSASTKGPSVFPLAPSSKSTSGGTAALGCLVKDYFPEPVTVSWNSGALTSGVHTFPAVLQSSGLYSLSSVVTVPSSSLGTQTYICNVNHKPSNTKVDKKVEPKSCDKTHTCPPCPAPELLAGPDVFLFPPKPKDTLMISRTPEVTCVVVDVSHEDPEVKFNWYVDGVEVHNAKTKPCEEQYNSTYRCVSVLTVLHQDWLNGKEYKCKVSNKALPAPEEKTISKAKGQPREPQVYTLPPCRDELTKNQVSLWCLVKGFYPSDIAVEWESNGQPENNYKTTPPVLDSDGSFFLYSKLTVDKSRWQQGNVFSCSVMHEALHNHYTQKSLSLSPG
chain: DKTHTCPPCPAPELLAGPDVFLFPPKPKDTLMISRTPEVTCVVVDVSHEDPEVKFNWYVDGVEVHNAKTKPCEEQYNSTYRCVSVLTVLHQDWLNGKEYKCKVSNKALPAPEEKTISKAKGQPREPQVCTLPPSRDELTKNQVSLSCAVKGFYPSDIAVEWESNGQPENNYKTTPPVLDSDGSFFLVSKLTVDKSRWQQGNVFSCSVMHEALHNRFTQKSLSLSPG
- Kd (human CD64 (human FcγRI)): 0.38 nM
- Kd (cynomolgus CD16): 15.7 nM
- Kd [1]: 16.5 nM
- Kd (cynomolgus CD32a [2]): 1350 nM
- Kd (cynomolgus CD32b [3]): 884 nM
- Kd [4]: 415 nM
- Kd [5]: 1350 nM
- Kd [6]: 1260 nM
- Kd (cynomolgus CD32a [7]): 1440 nM
- Kd (cynomolgus CD32b [8]): 1070 nM
- Kd [9]: 656 nM
- Kd [10]: 1060 nM
- Kd [11]: 1690 nM
- Kd (cynomolgus CD32a [12]): 1700 nM
- Kd [13]: 963 nM
- Kd (cynomolgus CD32a [14]): 1500 nM
- Kd (cynomolgus CD32b [15]): 1080 nM
- Kd [16]: 678 nM
- Kd [17]: 1280 nM
- Kd [18]: 1760 nM
- EC50 [19]: 1.33 µg/mL
